Data on eight molecules can be found in patent US20140162945A1 (BEIJING HANMI PHARMACEUTICAL, published 2014).

Bridges are numbered along the chain shown (N, C = ends). Where no end group is shown, it is not given here. [ ]: non-standard residue; d: D form. The star is where a group is joined. Palmitoyl = CCCCCCCCCCCCCCCC(=O)*; Aib = CC(C)(N)C(=O)O

One assay has as its target human GLP-1 receptor (human, UniProt P43220 24-463). The assay can be described thus: cell-based or functional assay.
In a further assay the target is T1, human GIP receptor (human, UniProt P48546 22-466).
T1 sequence (looked up): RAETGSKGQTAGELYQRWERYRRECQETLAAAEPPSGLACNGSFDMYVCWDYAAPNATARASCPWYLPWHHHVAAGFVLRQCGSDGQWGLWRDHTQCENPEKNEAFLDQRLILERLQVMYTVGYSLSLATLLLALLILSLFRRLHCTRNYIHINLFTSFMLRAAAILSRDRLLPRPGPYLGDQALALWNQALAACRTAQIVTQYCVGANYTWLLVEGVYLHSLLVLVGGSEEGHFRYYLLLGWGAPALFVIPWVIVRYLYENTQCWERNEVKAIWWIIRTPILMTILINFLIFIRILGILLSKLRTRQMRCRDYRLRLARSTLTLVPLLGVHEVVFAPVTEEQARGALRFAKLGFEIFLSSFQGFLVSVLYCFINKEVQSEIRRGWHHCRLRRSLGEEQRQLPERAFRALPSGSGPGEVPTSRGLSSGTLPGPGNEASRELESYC
As to the kind of experiment: cell-based or functional assay.

Chain of human GLP-1 receptor (P43220 24-463): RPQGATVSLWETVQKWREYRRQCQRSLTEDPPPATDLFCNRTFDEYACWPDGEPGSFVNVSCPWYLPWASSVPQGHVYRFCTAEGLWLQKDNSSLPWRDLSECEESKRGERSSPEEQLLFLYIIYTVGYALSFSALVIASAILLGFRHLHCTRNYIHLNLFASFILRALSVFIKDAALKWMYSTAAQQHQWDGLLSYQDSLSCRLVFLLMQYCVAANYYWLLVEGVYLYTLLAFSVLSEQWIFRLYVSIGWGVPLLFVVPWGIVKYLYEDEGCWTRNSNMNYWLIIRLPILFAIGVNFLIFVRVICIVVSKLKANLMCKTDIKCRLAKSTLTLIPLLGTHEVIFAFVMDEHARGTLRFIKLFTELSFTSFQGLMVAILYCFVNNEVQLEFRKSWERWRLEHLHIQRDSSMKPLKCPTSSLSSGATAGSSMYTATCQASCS

Turning to Y[Aib]EGTFTSDYSIYMEKEAVREFIAWLVK(Palmitoyl)G-NH2 [Analog 046], the “EC50, GLP-1 Receptor cAMP induction” value in the assay with human GLP-1 receptor is 6.52 nM.

B1: Analog 057 (peptide)
peptide: Y[Aib]EGTFTSDYSIYMEKEAVKEFIAWLVKG-NH2
modifications: N-terminus assumed
SMILES: CC[C@H](C)[C@H](NC(=O)[C@H](Cc1ccccc1)NC(=O)[C@H](CCC(=O)O)NC(=O)[C@H](CCCCN)NC(=O)[C@@H](NC(=O)[C@H](C)NC(=O)[C@H](CCC(=O)O)NC(=O)[C@H](CCCCN)NC(=O)[C@H](CCC(=O)O)NC(=O)[C@H](CCSC)NC(=O)[C@H](Cc1ccc(O)cc1)NC(=O)[C@@H](NC(=O)[C@H](CO)NC(=O)[C@H](Cc1ccc(O)cc1)NC(=O)[C@H](CC(=O)O)NC(=O)[C@H](CO)NC(=O)[C@@H](NC(=O)[C@H](Cc1ccccc1)NC(=O)[C@@H](NC(=O)CNC(=O)[C@H](CCC(=O)O)NC(=O)C(C)(C)NC(=O)[C@@H](N)Cc1ccc(O)cc1)[C@@H](C)O)[C@@H](C)O)[C@@H](C)CC)C(C)C)C(=O)N[C@@H](C)C(=O)N[C@@H](Cc1c[nH]c2ccccc12)C(=O)N[C@@H](CC(C)C)C(=O)N[C@H](C(=O)N[C@@H](CCCCN)C(=O)NCC(N)=O)C(C)C
In the case of B1, the “EC50, GLP-1 Receptor cAMP induction” value in the assay with human GLP-1 receptor turned out to be 4.23 nM. Moreover, in the assay with human GIP receptor, the “EC50, GIP Receptor cAMP induction” value stood at 0.57 nM and the “Relative Potency, GIP Receptor” value was determined as 36.8%.

B2: Analog 060 (peptide)
peptide: Y[Aib]EGTFTSDYSIYMEKEAVREFIAWLVKGKKKKK-NH2
modifications: N-terminus assumed
SMILES: CC[C@H](C)[C@H](NC(=O)[C@H](Cc1ccccc1)NC(=O)[C@H](CCC(=O)O)NC(=O)[C@H](CCCNC(=N)N)NC(=O)[C@@H](NC(=O)[C@H](C)NC(=O)[C@H](CCC(=O)O)NC(=O)[C@H](CCCCN)NC(=O)[C@H](CCC(=O)O)NC(=O)[C@H](CCSC)NC(=O)[C@H](Cc1ccc(O)cc1)NC(=O)[C@@H](NC(=O)[C@H](CO)NC(=O)[C@H](Cc1ccc(O)cc1)NC(=O)[C@H](CC(=O)O)NC(=O)[C@H](CO)NC(=O)[C@@H](NC(=O)[C@H](Cc1ccccc1)NC(=O)[C@@H](NC(=O)CNC(=O)[C@H](CCC(=O)O)NC(=O)C(C)(C)NC(=O)[C@@H](N)Cc1ccc(O)cc1)[C@@H](C)O)[C@@H](C)O)[C@@H](C)CC)C(C)C)C(=O)N[C@@H](C)C(=O)N[C@@H](Cc1c[nH]c2ccccc12)C(=O)N[C@@H](CC(C)C)C(=O)N[C@H](C(=O)N[C@@H](CCCCN)C(=O)NCC(=O)N[C@@H](CCCCN)C(=O)N[C@@H](CCCCN)C(=O)N[C@@H](CCCCN)C(=O)N[C@@H](CCCCN)C(=O)N[C@@H](CCCCN)C(N)=O)C(C)C
Turning to B2, in the assay with human GLP-1 receptor, the “EC50, GLP-1 Receptor cAMP induction” value came to 2.97 nM and the “Relative Potency, GLP-1 Receptor” value was 36.8%. Further, in the assay with human GIP receptor, the “EC50, GIP Receptor cAMP induction” value is 2.5 nM and the “Relative Potency, GIP Receptor” value stood at 8.4%.

B3: Analog 053-1 (peptide)
peptide: Y[Aib]EGTFTSDYSIYMEKEAVEEFIAWLVKG-NH2
modifications: N-terminus assumed
SMILES: CC[C@H](C)[C@H](NC(=O)[C@H](Cc1ccccc1)NC(=O)[C@H](CCC(=O)O)NC(=O)[C@H](CCC(=O)O)NC(=O)[C@@H](NC(=O)[C@H](C)NC(=O)[C@H](CCC(=O)O)NC(=O)[C@H](CCCCN)NC(=O)[C@H](CCC(=O)O)NC(=O)[C@H](CCSC)NC(=O)[C@H](Cc1ccc(O)cc1)NC(=O)[C@@H](NC(=O)[C@H](CO)NC(=O)[C@H](Cc1ccc(O)cc1)NC(=O)[C@H](CC(=O)O)NC(=O)[C@H](CO)NC(=O)[C@@H](NC(=O)[C@H](Cc1ccccc1)NC(=O)[C@@H](NC(=O)CNC(=O)[C@H](CCC(=O)O)NC(=O)C(C)(C)NC(=O)[C@@H](N)Cc1ccc(O)cc1)[C@@H](C)O)[C@@H](C)O)[C@@H](C)CC)C(C)C)C(=O)N[C@@H](C)C(=O)N[C@@H](Cc1c[nH]c2ccccc12)C(=O)N[C@@H](CC(C)C)C(=O)N[C@H](C(=O)N[C@@H](CCCCN)C(=O)NCC(N)=O)C(C)C
For the molecule B3, the “EC50, GLP-1 Receptor cAMP induction” value with human GLP-1 receptor is 12.7 nM. Further, in the assay with human GIP receptor, the “EC50, GIP Receptor cAMP induction” value stood at 0.5 nM and the “Relative Potency, GIP Receptor” value was 34%.

B4: Analog 052-1 (peptide)
peptide: Y[Aib]EGTFTSDYSEYMEKEAVREFIAWLVKG-NH2
modifications: N-terminus assumed
SMILES: CC[C@H](C)[C@H](NC(=O)[C@H](Cc1ccccc1)NC(=O)[C@H](CCC(=O)O)NC(=O)[C@H](CCCNC(=N)N)NC(=O)[C@@H](NC(=O)[C@H](C)NC(=O)[C@H](CCC(=O)O)NC(=O)[C@H](CCCCN)NC(=O)[C@H](CCC(=O)O)NC(=O)[C@H](CCSC)NC(=O)[C@H](Cc1ccc(O)cc1)NC(=O)[C@H](CCC(=O)O)NC(=O)[C@H](CO)NC(=O)[C@H](Cc1ccc(O)cc1)NC(=O)[C@H](CC(=O)O)NC(=O)[C@H](CO)NC(=O)[C@@H](NC(=O)[C@H](Cc1ccccc1)NC(=O)[C@@H](NC(=O)CNC(=O)[C@H](CCC(=O)O)NC(=O)C(C)(C)NC(=O)[C@@H](N)Cc1ccc(O)cc1)[C@@H](C)O)[C@@H](C)O)C(C)C)C(=O)N[C@@H](C)C(=O)N[C@@H](Cc1c[nH]c2ccccc12)C(=O)N[C@@H](CC(C)C)C(=O)N[C@H](C(=O)N[C@@H](CCCCN)C(=O)NCC(N)=O)C(C)C
For B4, the “EC50, GLP-1 Receptor cAMP induction” value with human GLP-1 receptor amounted to 2.5 nM. Further, in the assay with human GIP receptor, the “EC50, GIP Receptor cAMP induction” value stood at 0.57 nM and the “Relative Potency, GIP Receptor” value came to 36.8%.

B5: Analog 053-2 (peptide)
peptide: Y[Aib]EGTFTSDYSIYMEKEAVEEFIAWLVKG-NH2
modifications: lactam 16-20; N-terminus assumed
SMILES: CC[C@H](C)[C@H](NC(=O)[C@H](Cc1ccccc1)NC(=O)[C@H](CCC(=O)O)NC(=O)[C@@H]1CCC(=O)NCCCC[C@H](NC(=O)[C@H](CCC(=O)O)NC(=O)[C@H](CCSC)NC(=O)[C@H](Cc2ccc(O)cc2)NC(=O)[C@@H](NC(=O)[C@H](CO)NC(=O)[C@H](Cc2ccc(O)cc2)NC(=O)[C@H](CC(=O)O)NC(=O)[C@H](CO)NC(=O)[C@@H](NC(=O)[C@H](Cc2ccccc2)NC(=O)[C@@H](NC(=O)CNC(=O)[C@H](CCC(=O)O)NC(=O)C(C)(C)NC(=O)[C@@H](N)Cc2ccc(O)cc2)[C@@H](C)O)[C@@H](C)O)[C@@H](C)CC)C(=O)N[C@@H](CCC(=O)O)C(=O)N[C@@H](C)C(=O)N[C@@H](C(C)C)C(=O)N1)C(=O)N[C@@H](C)C(=O)N[C@@H](Cc1c[nH]c2ccccc12)C(=O)N[C@@H](CC(C)C)C(=O)N[C@H](C(=O)N[C@@H](CCCCN)C(=O)NCC(N)=O)C(C)C
B5: in the assay with human GLP-1 receptor, the “EC50, GLP-1 Receptor cAMP induction” value came to 2.96 nM and the “Relative Potency, GLP-1 Receptor” value was 37%. In the assay with human GIP receptor, the “EC50, GIP Receptor cAMP induction” value turned out to be 0.48 nM and the “Relative Potency, GIP Receptor” value is 35.4%.

B6: Analog 052-2 (peptide)
peptide: Y[Aib]EGTFTSDYSEYMEKEAVREFIAWLVKG-NH2
modifications: lactam 12-16; N-terminus assumed
SMILES: CC[C@H](C)[C@H](NC(=O)[C@H](Cc1ccccc1)NC(=O)[C@H](CCC(=O)O)NC(=O)[C@H](CCCNC(=N)N)NC(=O)[C@@H](NC(=O)[C@H](C)NC(=O)[C@H](CCC(=O)O)NC(=O)[C@@H]1CCCCNC(=O)CC[C@H](NC(=O)[C@H](CO)NC(=O)[C@H](Cc2ccc(O)cc2)NC(=O)[C@H](CC(=O)O)NC(=O)[C@H](CO)NC(=O)[C@@H](NC(=O)[C@H](Cc2ccccc2)NC(=O)[C@@H](NC(=O)CNC(=O)[C@H](CCC(=O)O)NC(=O)C(C)(C)NC(=O)[C@@H](N)Cc2ccc(O)cc2)[C@@H](C)O)[C@@H](C)O)C(=O)N[C@@H](Cc2ccc(O)cc2)C(=O)N[C@@H](CCSC)C(=O)N[C@@H](CCC(=O)O)C(=O)N1)C(C)C)C(=O)N[C@@H](C)C(=O)N[C@@H](Cc1c[nH]c2ccccc12)C(=O)N[C@@H](CC(C)C)C(=O)N[C@H](C(=O)N[C@@H](CCCCN)C(=O)NCC(N)=O)C(C)C
In the case of B6, in the assay with human GLP-1 receptor, the “EC50, GLP-1 Receptor cAMP induction” value worked out at 0.824 nM and the “Relative Potency, GLP-1 Receptor” value is 133%. For the same molecule, in the assay with human GIP receptor, the “EC50, GIP Receptor cAMP induction” value turned out to be 0.064 nM and the “Relative Potency, GIP Receptor” value was 147%.

B7: Analog 066 (peptide)
peptide: Y[Aib]EGTFTSDYSIYMEKEAVREFIAWLVKGGPSSGAPPPSK-NH2
modifications: N-terminus assumed
SMILES: CC[C@H](C)[C@H](NC(=O)[C@H](Cc1ccccc1)NC(=O)[C@H](CCC(=O)O)NC(=O)[C@H](CCCNC(=N)N)NC(=O)[C@@H](NC(=O)[C@H](C)NC(=O)[C@H](CCC(=O)O)NC(=O)[C@H](CCCCN)NC(=O)[C@H](CCC(=O)O)NC(=O)[C@H](CCSC)NC(=O)[C@H](Cc1ccc(O)cc1)NC(=O)[C@@H](NC(=O)[C@H](CO)NC(=O)[C@H](Cc1ccc(O)cc1)NC(=O)[C@H](CC(=O)O)NC(=O)[C@H](CO)NC(=O)[C@@H](NC(=O)[C@H](Cc1ccccc1)NC(=O)[C@@H](NC(=O)CNC(=O)[C@H](CCC(=O)O)NC(=O)C(C)(C)NC(=O)[C@@H](N)Cc1ccc(O)cc1)[C@@H](C)O)[C@@H](C)O)[C@@H](C)CC)C(C)C)C(=O)N[C@@H](C)C(=O)N[C@@H](Cc1c[nH]c2ccccc12)C(=O)N[C@@H](CC(C)C)C(=O)N[C@H](C(=O)N[C@@H](CCCCN)C(=O)NCC(=O)NCC(=O)N1CCC[C@H]1C(=O)N[C@@H](CO)C(=O)N[C@@H](CO)C(=O)NCC(=O)N[C@@H](C)C(=O)N1CCC[C@H]1C(=O)N1CCC[C@H]1C(=O)N1CCC[C@H]1C(=O)N[C@@H](CO)C(=O)N[C@@H](CCCCN)C(N)=O)C(C)C
In the case of B7, in the assay with human GLP-1 receptor, the “EC50, GLP-1 Receptor cAMP induction” value came to 2.5 nM and the “Relative Potency, GLP-1 Receptor” value amounted to 43.7%. Also, in the assay with human GIP receptor, the “EC50, GIP Receptor cAMP induction” value was 0.34 nM and the “Relative Potency, GIP Receptor” value came to 50%.
